Here are results for 116 sequences from the supplement of paper PMC10724198.

± gives the standard deviation of the averaged measurements.
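Note: PSI is a weighted mean of sequencing reads over stability bins, variants kept only with over 10 reads, mCherry proximal and sfGFP distal, peptide attached via GGGS linker.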

The test system of the series is Saccharomyces cerevisiae. As to the kind of experiment: protein stability index of tFT-peptide fusion (C-terminal peptide) (PSI (0-1 scale)); higher = more stable (slower turnover). Particulars: genetic background: wild type; temperature: 30 C.
Consider LGVGSVGAKCGS, for which the protein stability index stood at 0.639 ± 0.0071. With LGVVGYGLGGGK the figure was 0.707 ± 0.0096; with LHAGWNLISSRL, 0.633 ± 0.037; with LHAPFPHPPPPP, 0.6713 ± 0.005. With LHFGSSSSRDFM the figure was 0.709 ± 0.027. Under LHPTPPPVLAPP stands 0.654 ± 0.12. Sequence LHRFPMISLLGP came in with a protein stability index of 0.699 ± 0.018. Under LICRRVRLSMRG stands 0.571 ± 0.028. Under LILLTIQSQPPV stands 0.622 ± 0.0018. Under LIPRCLIPVTRY stands 0.655 ± 0.018; under LIQSDKTPRTTR, 0.696 ± 0.012; under LIVIGGGAVNGV, 0.63 ± 0.069. LIWGRGGSRTGG registered a protein stability index of 0.747 ± 0.062. Under LKDQFKNKNKSS stands 0.531 ± 0.04; under LKELDTGVEQDE, 0.671 ± 0.0096; under LKIDTCSQQEEN, 0.675 ± 0.11. Under LKKKKNKKQKTE stands 0.6152 ± 0.0053; under LKLQGGCLETGA, 0.602 ± 0.015; under LKNVKFTNNRKK, 0.694 ± 0.014. LKQHDSNESASR yielded a protein stability index of 0.6565 ± 0.001. The sequence LKTGTAAGVKDH returned a protein stability index of 0.684 ± 0.049. With LLAGEDGGVGEE the figure was 0.653 ± 0.057.

LLALAPFWVRHK came in with a protein stability index of 0.68 ± 0.011.

With LLALPFPPSSLF, the protein stability index is 0.701 ± 0.054. Under LLALQCSLFTPH stands 0.678 ± 0.15; under LLAPPLPPPRHG, 0.674 ± 0.018.

As to LLCSSFSFHCFP, the protein stability index worked out at 0.667 ± 0.0068. LLCYSGVIFGSV had a protein stability index of 0.59 ± 0.087. With LLDEHGKRRKKI the figure was 0.713 ± 0.0011.

For the sequence LLFCFIPCVFWG, the protein stability index turned out to be 0.5096 ± 0.0029. Sequence LLFFSCGGVSSV yielded a protein stability index of 0.657 ± 0.053. Under LLFFSLFFSPLP stands 0.642 ± 0.041; under LLFFSSCLDCFV, 0.635 ± 0.026; under LLFPPVCRPCLS, 0.605 ± 0.11. With LLFSRVDFSSPL the figure was 0.804 ± 0.098; with LLFYSVPLSSSF, 0.655 ± 0.072; with LLGRSPSPTRPT, 0.65732 ± 0.00035. Regarding LLGVGYGSGGWR, the protein stability index worked out at 0.633 ± 0.089. LLGVYVRSFGSK came in with a protein stability index of 0.698 ± 0.015. With LLHMSRLWYTTF the figure was 0.595 ± 0.022; with LLKNPFRGTSVF, 0.737 ± 0.11; with LLLFPRFPPPPL, 0.711 ± 0.038. As for LLLPFVSPPVYS, the protein stability index is 0.569 ± 0.031. With LLLPSLAPTPTA the figure was 0.654 ± 0.025; with LLLSALLLSASP, 0.625 ± 0.0083; with LLLSALSRRPSF, 0.678 ± 0.023. In turn, LLLSRLSPPPPS had a protein stability index of 0.716 ± 0.021. In the case of LLLVLGLSLVGL, the protein stability index turned out to be 0.564 ± 0.035. Under LLMHPCTVELIS stands 0.594 ± 0.042.

In the case of LLPCLSSLPPLP, the protein stability index is 0.7 ± 0.064. With LLPHALHVPFHL the figure was 0.707 ± 0.1. In turn, LLPHLLVLLPSS had a protein stability index of 0.623 ± 0.0049. LLPISFVSPPPG had a protein stability index of 0.6915 ± 0.0026. With LLPLPPPPPPPP, the protein stability index came out at 0.685 ± 0.063. With LLPLRPRSLGPP, the protein stability index turned out to be 0.693 ± 0.0011. For the sequence LLPPALPESPPP, the protein stability index worked out at 0.649 ± 0.0072.

The sequence LLPPPSTPPRLI registered a protein stability index of 0.716 ± 0.052. LLPPTPIAFPPS returned a protein stability index of 0.728 ± 0.073. With LLRALPSYRPFP the figure was 0.696 ± 0.016; with LLRLPCHLSQAS, 0.68 ± 0.035.

In turn, LLRSSPPLPPPS returned a protein stability index of 0.737 ± 0.029. Under LLSNTINRIWRN stands 0.658 ± 0.018; under LLSSIPSLMFYY, 0.667 ± 0.046. In turn, LLSSLLLDQPYR came in with a protein stability index of 0.6455 ± 0.0036. With LLSSPPSPGFSL the figure was 0.748 ± 0.12; with LLSVVLPDSSLP, 0.738 ± 0.065. On to LLTCRPPQCLLC, for which the protein stability index turned out to be 0.6303 ± 0.0038. In turn, LLTGCVPVLIRK returned a protein stability index of 0.707 ± 0.093. Consider LLTLPPPRLLSL, for which the protein stability index amounted to 0.629 ± 0.022. With LLTSFFTLFCNT the figure was 0.657 ± 0.05; with LLVREVGVERTF, 0.7636 ± 0.0024. With LLVSVHFSPPLY, the protein stability index worked out at 0.5515 ± 0.0023. LMFGDPIEANKE showed a protein stability index of 0.67 ± 0.01. Under LMGASAAFIKKG stands 0.601 ± 0.067; under LMYPGTSPLSPH, 0.711 ± 0.092. LNEVSLLSPAPL: the protein stability index amounted to 0.64 ± 0.057. Under LNHSLLHILSRV stands 0.656 ± 0.022. With LNLSIRDVTSSG the figure was 0.657 ± 0.013; with LNPLAILCSSVF, 0.617 ± 0.037. In the case of LNSSRLSFFCLE, the protein stability index is 0.689 ± 0.079. Sequence LNWISKQVTEKH returned a protein stability index of 0.676 ± 0.013. Under LPAFAPLCLPTL stands 0.703 ± 0.02. Under LPASWSRVSFAG stands 0.6825 ± 0.0034.

Turning to LPCPSFPSLPFL, the protein stability index came to 0.646 ± 0.1. On to LPGFPGPSCICH, for which the protein stability index amounted to 0.703 ± 0.21. The sequence LPHPRPPQSPPQ had a protein stability index of 0.7 ± 0.03. With LPLLLPFRTPDF the figure was 0.693 ± 0.015; with LPLLPLPSLSPP, 0.713 ± 0.035.

The sequence LPLLRWASPRGF had a protein stability index of 0.685 ± 0.0042. Under LPLPPLPPGMLS stands 0.747 ± 0.073; under LPLPPPSPFPPL, 0.691 ± 0.015; under LPLQPSSNLTCL, 0.70856 ± 0.00024.

Take LPLSLPTPPALD: the protein stability index amounted to 0.716 ± 0.075. Under LPPATMFFISAS stands 0.558 ± 0.019. Sequence LPPCPLFPPVHF returned a protein stability index of 0.757 ± 0.1. Under LPPCPPGGRRSR stands 0.706 ± 0.036; under LPPFLLPPFFSI, 0.718 ± 0.055. Under LPPFPPPSAPPS stands 0.792 ± 0.023; under LPPHRSSTPPPA, 0.644 ± 0.02; under LPPLLDSPPCSP, 0.733 ± 0.04.

For LPPLPPIAPPPP, the protein stability index is 0.8126 ± 0.0041. With LPPLPPPSPFPS the figure was 0.762 ± 0.074; with LPPLPPSPPPLP, 0.685 ± 0.024. The sequence LPPLPRPLLLPR had a protein stability index of 0.661 ± 0.044. Turning to LPPPAPRSHCPL, the protein stability index worked out at 0.725 ± 0.098. With LPPPLPPCPSGP, the protein stability index was determined as 0.77 ± 0.048. In turn, LPPPPFPPPKPF returned a protein stability index of 0.683 ± 0.0084. In turn, LPPPPLPPHPPL showed a protein stability index of 0.748 ± 0.067.

LPPPPLPQAPPT returned a protein stability index of 0.702 ± 0.075. With LPPPPPCPPSPL the figure was 0.671 ± 0.024; with LPPPPPPPASPD, 0.699 ± 0.058; with LPPPPPPPPLPH, 0.705 ± 0.1. LPPPPTCYDHPL: the protein stability index was 0.676 ± 0.052. With LPPPPTFPPPRS the figure was 0.8307 ± 0.0063. Under LPPPSAPFPLPP stands 0.743 ± 0.026; under LPPPSPLPNSPL, 0.716 ± 0.13.
